Test results taken from paper PMC3760334.

Assays:
[1] = molecular target: signal recognition particle (SRP), fluorescein-labeled at C421 (E. coli) (UniProt P0AGD7); test: fluorescence polarisation
[2] = molecular target: RNC_(1A9L) bound to donor-labeled SRP (E. coli | not stated) (UniProt P0AGD7); test: FRET or BRET
[3] = molecular target: RNC_(2A8L) bound to donor-labeled SRP (E. coli | not stated) (UniProt P0AGD7); test: FRET or BRET
[4] = molecular target: RNC_(EspP) bound to donor-labeled SRP (E. coli) (UniProt P0AGD7); test: FRET or BRET
[5] = molecular target: RNC_(luciferase) bound to donor-labeled SRP (E. coli | firefly) (UniProt P0AGD7); test: FRET or BRET

Kd [1] | Substance | kon [2] | kon [3] | Kd [4] | Kd [5]
130 nM | RNC_(luciferase): stalled ribosome-nascent chain complex with a nascent chain of firefly luciferase (from UniProt P08659 1-550) |  |  |  | 
108 nM | RNC_(phoA): stalled ribosome-nascent chain complex with the signal sequence of alkaline phosphatase (phoA) |  |  |  | 
 | SRP receptor (SR), acceptor-labeled (from UniProt P10121 1-497) | 9.9e+06 M⁻¹ s⁻¹ | 8.8e+06 M⁻¹ s⁻¹ | 311 nM | 2060 nM

Substance | Kd [1] | kon [2] | kon [3] | Kd [4] | Kd [5]
RNC_(EspP): stalled ribosome-nascent chain complex with the signal sequence of EspP | 13.6 nM |  |  |  | 
